From patent US6410715 (QUESTCOR PHARMACEUTICALS, dated 2002) come the findings set out here.

Test [1] concerns the target 4E-BP1 prepared from untreated rat adipose tissue (rat) (UniProt Q62622). As to the kind of experiment: far-Western on blotted heat-stable adipose tissue proteins, pool 1, no insulin.
Test [2] has the same target. Briefly: far-Western on blotted heat-stable adipose tissue proteins, pool 2, no insulin.
Test [3] has the same target. As to the kind of experiment: far-Western on blotted heat-stable adipose tissue proteins, pool 3, no insulin.
For test [4], the target named is 4E-BP1 prepared from insulin-treated rat adipose tissue (rat) (UniProt Q62622). As to the kind of experiment: far-Western, pool 1, insulin-treated against untreated tissue of the same pool.
Chain of 4E-BP1 prepared from insulin-treated rat adipose tissue (rat) (Q62622 2-117 limits assumed): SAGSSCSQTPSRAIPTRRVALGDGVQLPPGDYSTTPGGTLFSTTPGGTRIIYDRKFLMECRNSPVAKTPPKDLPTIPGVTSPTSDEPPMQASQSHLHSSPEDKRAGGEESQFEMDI
Test [5] has the same target. Briefly: far-Western, pool 2, insulin-treated against untreated tissue of the same pool.
The target is the same in test [6]. As to the kind of experiment: far-Western, pool 3, insulin-treated against untreated tissue of the same pool.
Test [7] has the same target. Briefly: far-Western on blotted heat-stable adipose tissue proteins, pool 1, insulin 80 nM.
For test [8] the target is unchanged. Briefly: far-Western on blotted heat-stable adipose tissue proteins, pool 2, insulin 80 nM.
Test [9] has the same target. As to the kind of experiment: far-Western on blotted heat-stable adipose tissue proteins, pool 3, insulin 80 nM.
The target in test [10] is eIF-4E of human HTK-143 cells (human) (UniProt P06730). As to the kind of experiment: cell-based or functional assay.
Chain of eIF-4E of human HTK-143 cells (human) (P06730 2-217 limits assumed): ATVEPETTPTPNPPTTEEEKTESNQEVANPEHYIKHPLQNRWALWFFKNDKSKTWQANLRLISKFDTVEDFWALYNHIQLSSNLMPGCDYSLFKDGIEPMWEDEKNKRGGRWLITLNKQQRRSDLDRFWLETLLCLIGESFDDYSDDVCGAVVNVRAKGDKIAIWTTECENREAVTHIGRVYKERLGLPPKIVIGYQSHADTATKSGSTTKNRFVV
The target of test [11] is eIF-4E of rabbit reticulocyte lysate (rabbit, UniProt P29338 2-217). As to the kind of experiment: cell-based or functional assay.
Chain of eIF-4E of rabbit reticulocyte lysate (P29338 2-217 limits assumed): as the sequence (P06730 2-217 limits assumed) above, with T15P, T16A, E173D counted along it

Chain of 4E-BP1 prepared from untreated rat adipose tissue (rat) (Q62622 2-117 limits assumed): as the sequence (Q62622 2-117 limits assumed) above

As to 32P-labelled HMK-eIF-4E probe, the Relative amount of HMK-eIF-4E bound (relative amount (Phosphorimager)) was found to be 152 in test [1]; 210 in [2]; 214 in [3]; 41 in test [7]; 70 in [8]; 60 in [9]. The Fold reduction in test [4] was 3.7 fold; in test [5] it was 3 fold; in test [6], 3.6 fold.

Take “4E-BP1 (human, protein of 118 amino acids)”: in [10], the CAT (%), cap-dependent expression from pGEMCAT/EMC/LUC in HTK-143 cells co-transfected with pRc/CMV/4E-BP1 (% of reporter plasmid alone) was found to be 28; the CAT (%), cap-dependent expression from pGEMCAT/polio/LUC in HTK-143 cells co-transfected with pRc/CMV/4E-BP1 (% of reporter plasmid alone) was determined as 22; the inhibition of CAT expression in transfected HTK-143 cells is 4 to 5 fold.

As to “4E-BP2 (human, protein of 120 amino acids)”, in test [10], the CAT (%), cap-dependent expression from pGEMCAT/EMC/LUC in HTK-143 cells co-transfected with pRc/CMV/4E-BP2 (% of reporter plasmid alone) came to 26; the CAT (%), cap-dependent expression from pGEMCAT/polio/LUC in HTK-143 cells co-transfected with pRc/CMV/4E-BP2 (% of reporter plasmid alone) is 24; the inhibition of CAT expression in transfected HTK-143 cells is 4 to 5 fold.

B1: GST-4E-BP2 fusion protein (other, not shown: a dimerising Fc or GST; large carriers; small tags and cut ends)
chain: MSSSAGSGHQPSQSRAIPTRTVAISDAAQLPHDYCTTPGGTLFSTTPGGTRIIYDRKFLLDRRNSPMAQTPPCHLPNIPGVTSPGTLIEDSKVEVNNLNNLNNHDRKHAVGDDAQFEMDI
Consider B1, for which the “inhibition of translation of CAT (cap-dependent)” value in test [11] was around 5 fold.
